Laboratory results published in doi:10.1101/2020.09.10.291369, “In vivo and in vitro mechanistic characterization of a clinically relevant PolγA mutation”.

Biological target: T1, POLγA A449T (UniProt P54099 26-1218, A450T)
T1 sequence: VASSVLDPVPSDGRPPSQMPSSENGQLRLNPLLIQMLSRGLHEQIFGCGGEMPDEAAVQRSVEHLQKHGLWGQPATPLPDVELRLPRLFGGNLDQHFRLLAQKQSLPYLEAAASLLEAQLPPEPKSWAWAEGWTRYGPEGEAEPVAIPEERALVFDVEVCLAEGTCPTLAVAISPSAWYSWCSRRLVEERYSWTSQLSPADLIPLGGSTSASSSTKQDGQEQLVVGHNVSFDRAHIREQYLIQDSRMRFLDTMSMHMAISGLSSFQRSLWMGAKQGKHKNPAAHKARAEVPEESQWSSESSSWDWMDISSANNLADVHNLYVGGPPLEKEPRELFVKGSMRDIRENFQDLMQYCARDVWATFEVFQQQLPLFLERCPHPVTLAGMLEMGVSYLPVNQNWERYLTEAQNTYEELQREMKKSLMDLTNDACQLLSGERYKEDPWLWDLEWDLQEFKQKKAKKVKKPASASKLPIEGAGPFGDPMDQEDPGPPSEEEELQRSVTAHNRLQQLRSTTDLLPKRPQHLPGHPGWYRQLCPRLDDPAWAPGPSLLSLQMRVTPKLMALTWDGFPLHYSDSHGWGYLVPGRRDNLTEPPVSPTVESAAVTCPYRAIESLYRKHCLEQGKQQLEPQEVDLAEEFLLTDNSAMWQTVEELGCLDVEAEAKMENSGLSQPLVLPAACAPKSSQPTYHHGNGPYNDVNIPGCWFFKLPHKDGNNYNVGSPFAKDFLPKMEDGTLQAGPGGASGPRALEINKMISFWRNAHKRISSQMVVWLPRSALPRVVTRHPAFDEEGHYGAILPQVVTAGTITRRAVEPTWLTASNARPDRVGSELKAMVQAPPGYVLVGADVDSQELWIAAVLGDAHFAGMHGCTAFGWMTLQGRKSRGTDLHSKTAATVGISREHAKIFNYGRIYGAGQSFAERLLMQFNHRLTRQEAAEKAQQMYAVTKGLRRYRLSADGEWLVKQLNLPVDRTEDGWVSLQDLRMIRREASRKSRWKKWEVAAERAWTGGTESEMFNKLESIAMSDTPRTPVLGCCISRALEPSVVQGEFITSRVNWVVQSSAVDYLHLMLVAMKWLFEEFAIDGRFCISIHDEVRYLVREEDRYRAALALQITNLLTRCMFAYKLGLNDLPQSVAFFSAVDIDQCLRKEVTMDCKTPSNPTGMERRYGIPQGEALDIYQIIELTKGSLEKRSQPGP
Experiment: EMSA; POLγA alone; 10 mM MgCl2, ddGTP, dCTP, ATP; Kd in Suppl. Fig. 5A, value not in material; EMSA: 10 fmol DNA in 15 µl, 20 mM Tris-HCl pH 7.8, 1 mM DTT, 0.1 mg/ml BSA, 10 mM MgCl2, 10% glycerol, 2 mM ATP, 0.3 mM ddGTP, 3 mM dCTP, RT 10 min; 6% native PAGE 0.5x TBE
Settings: protein: recombinant; label: 5'-32P on strand 2 (21-mer); 5' overhang 15 nt on strand 1; 21 bp duplex; primer-template

B1: 36-nt/21-nt primed template (mixed)
DNA 1: TTTTTTTTTTATCCGGGCTCCTCTAGACTCGACCGC
DNA 2: GCGGTCGAGTCTAGAGGAGCC
B1 showed a binding signal of about 3.4 fold weaker than WT.
